Source: article PMC13376610, “Nanobody-mediated control of long RSH Rel and RelA catalysis by restriction of their conformational landscape” (Nature Communications, 2026)
Changes are numbered by the printed parent chain. Like-named read-outs stand apart in the source and are kept apart here.

Tests used:
RelCt^NTD = biological target: T1, RelCt^NTD (Chlorobaculum tepidum, UniProt Q8KC80); test: ITC; format: binding; conditions: 15 °C, pH 7.5, 10 mM MgCl2, no nanobody; SYNTH active site; non-hydrolysable ATP analogue; also crystal structure with GDP (2.65 Å)
T1 construct: gene relA; N-terminal catalytic region (HD + SYNTH domains), C-terminal regulatory domains removed; N-terminal His-TEV tag cleaved; recombinant, gene from GenScript
T1 sequence (Q8KC80 1-390 limits assumed): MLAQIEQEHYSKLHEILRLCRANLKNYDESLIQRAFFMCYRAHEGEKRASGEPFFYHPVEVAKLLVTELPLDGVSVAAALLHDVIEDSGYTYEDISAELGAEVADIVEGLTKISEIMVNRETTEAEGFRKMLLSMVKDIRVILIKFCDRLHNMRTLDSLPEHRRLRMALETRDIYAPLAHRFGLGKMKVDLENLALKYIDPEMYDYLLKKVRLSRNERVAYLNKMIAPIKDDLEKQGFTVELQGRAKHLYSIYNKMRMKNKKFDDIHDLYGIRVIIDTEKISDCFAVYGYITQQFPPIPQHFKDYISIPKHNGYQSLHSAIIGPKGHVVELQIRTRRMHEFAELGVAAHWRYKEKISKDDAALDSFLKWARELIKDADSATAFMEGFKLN

[1] = biological target: T2, full-length Rel from Chlorobaculum tepidum (Chlorobaculum tepidum TLS, UniProt Q8KC80); test: ITC; nanobody titrated into the RSH enzyme in the cell; Affinity-ITC, 15 °C, 2 μL injections, stirring 75 r.p.m., triplicate; mean KD ± SD; conditions: both partners purified
T2 construct: Rel, bifunctional (p)ppGpp synthetase/hydrolase (long RSH), Chlorobaculum tepidum, full length; PDB 9S6K and 9S6L hold the NTD of this protein; also called RelCt; RelACt (as printed once); source: construct generated by GenScript

[2] = biological target: T2, full-length Rel from Chlorobaculum …; test: cell-based or functional assay
[3] = biological target: T3, RelCt^NTD, N-terminal catalytic region of C. tepidum Rel (Chlorobaculum tepidum); test: ITC
T3 chain: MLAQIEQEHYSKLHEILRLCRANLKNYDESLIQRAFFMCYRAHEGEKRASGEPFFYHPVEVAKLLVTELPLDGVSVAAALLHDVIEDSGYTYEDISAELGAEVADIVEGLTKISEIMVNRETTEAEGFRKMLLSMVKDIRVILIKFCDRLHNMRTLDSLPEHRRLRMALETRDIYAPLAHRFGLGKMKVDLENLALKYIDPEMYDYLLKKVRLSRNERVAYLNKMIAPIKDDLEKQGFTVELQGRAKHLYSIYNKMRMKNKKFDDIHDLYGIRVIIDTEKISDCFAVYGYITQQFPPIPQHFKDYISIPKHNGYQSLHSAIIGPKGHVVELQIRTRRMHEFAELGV

RelCt^K280A = biological target: T4, RelCt^K280A (Chlorobaculum tepidum); test: ITC
T4 chain: T3 chain with K280A

RelCt^D283A [4] = biological target: T5, RelCt^D283A (Chlorobaculum tepidum); test: ITC
T5 chain: T3 chain with D283A

RelCt^Y290A = biological target: T6, RelCt^Y290A (Chlorobaculum tepidum); test: ITC
T6 chain: T3 chain with Y290A

RelCt^A286K = biological target: T7, RelCt^A286K (Chlorobaculum tepidum); test: ITC
T7 chain: T3 chain with A286K

RelCt^D283A [5] = biological target: T5, RelCt^D283A; test: ITC
full-length E. coli RelA = biological target: T8, full-length E. coli RelA (Escherichia coli (K-12 entry), UniProt P0AG20); test: ITC; nanobody titrated into the RSH enzyme in the cell; Affinity-ITC, 15 °C, 2 μL injections, stirring 75 r.p.m., triplicate; mean KD ± SD; conditions: both partners purified
T8 construct: RelA, long RSH (p)ppGpp synthetase, Escherichia coli, full length; also called RelAEc; source: construct generated by GenScript

[6] = biological target: T9, RelCt^NTD, N-terminal catalytic region of C. tepidum Rel (Chlorobaculum tepidum TLS); test: HDX-MS; RelCt^NTD alone against its complex with the nanobody, 50 to 70 μM; labelling 0.5, 5 or 60 min at 20 °C in 50 mM HEPES, 500 mM KCl, 500 mM NaCl, 2 mM MgCl2, 1 mM TCEP, 0.002% mellitic acid (pD 7.5); triplicate; conditions: both partners purified
T9 construct: Rel, Chlorobaculum tepidum, N-terminal catalytic region (HD and SYNTH domains); His-TEV tag removed with TEV protease; source: recombinant, purified (HisTrap, SEC, TEV cleavage, reverse IMAC, SEC); construct generated by GenScript; not shown: His tag, N-terminal, cleaved
T9 chain: T3 chain

[7] = biological target: RelCt^R215E (Chlorobaculum tepidum); test: ITC; nanobody titrated into the RSH enzyme in the cell; Affinity-ITC, 15 °C, 2 μL injections, stirring 75 r.p.m., triplicate; mean KD ± SD

T8 sequence (P0AG20 whole entry): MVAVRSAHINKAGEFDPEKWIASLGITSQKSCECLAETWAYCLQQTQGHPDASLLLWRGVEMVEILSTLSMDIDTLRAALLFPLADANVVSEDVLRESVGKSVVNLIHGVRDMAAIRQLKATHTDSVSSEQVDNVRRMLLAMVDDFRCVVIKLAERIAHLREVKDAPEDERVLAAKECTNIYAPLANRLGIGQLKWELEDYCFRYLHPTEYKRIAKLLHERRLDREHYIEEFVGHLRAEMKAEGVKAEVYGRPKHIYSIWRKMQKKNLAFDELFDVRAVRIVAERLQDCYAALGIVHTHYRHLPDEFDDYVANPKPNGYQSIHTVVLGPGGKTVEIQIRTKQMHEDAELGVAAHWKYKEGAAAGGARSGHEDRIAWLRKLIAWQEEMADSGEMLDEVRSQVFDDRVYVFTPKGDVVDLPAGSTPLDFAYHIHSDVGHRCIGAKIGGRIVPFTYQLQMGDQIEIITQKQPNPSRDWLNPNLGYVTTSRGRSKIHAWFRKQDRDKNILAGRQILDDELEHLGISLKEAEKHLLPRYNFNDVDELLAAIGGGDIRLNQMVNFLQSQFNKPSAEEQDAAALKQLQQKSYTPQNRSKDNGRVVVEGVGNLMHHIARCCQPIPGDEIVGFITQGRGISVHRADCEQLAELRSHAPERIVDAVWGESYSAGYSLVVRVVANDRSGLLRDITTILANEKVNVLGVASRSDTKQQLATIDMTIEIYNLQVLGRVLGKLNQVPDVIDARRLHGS

Nc1ncnc2c1ncn2[C@@H]1O[C@H](COP(=O)(O)CP(=O)(O)OP(=O)(O)O)[C@@H](O)[C@H]1O [APCPP]
Kd (RelCt^NTD): 37.9 µM

B1: Nb898 (VHH)
VHH: QVQLQESGGGLVQAGGSLRLSCAASGSIESINAMAWYRQAPGKPRELVAVIAKSDGSTTYAVPVKGRFTISRDDAKNTVYLQMNSLKPEDTAIYYCNKIPNFTYWGQGTQVTVSS
notes: llama nanobody selected against C. tepidum Rel; Expressed from the pMESy4 plasmid; source: E. coli WK6, periplasmic extraction, purified (Ni-NTA IMAC, SEC)
Kd [1]: 0.186 µM
SYNTH activity (turnover of ppGpp synthesis) of RelCt in the presence of Nb898, HPLC [2]: ~11 fold
Kd [3]: 0.19 µM

B2: Nb898 (VHH)
VHH: B1 VHH
modifications: form not printed for this variant; NTD taken because the methods purify 'RelCtNTD and variants' (full length possible); limits from 9S6K entity
Kd (RelCt^K280A): 2.2 µM
Kd (RelCt^D283A [4]): 0.201 µM
Kd (RelCt^Y290A): 1.1 µM
Kd (RelCt^A286K): 12 µM
Kd (RelCt^D283A [5]): 0.2 µM

B3: Nb94 (VHH)
VHH: QVQLVESGGGMVQPGGSLRLSCAASGFTFSTYSMGWFRQAPGQEREFVAAISWSGDSAYYADSVKGRFTISRDNAKNTVYLQMNSLKFEDTAVYYCNADLDGLGYDYWGQGTQVTVS
notes: llama nanobody selected against E. coli RelA; Expressed from the pMESy4 plasmid; also called nanobody 94; source: E. coli WK6, periplasmic extraction, purified (Ni-NTA IMAC, SEC)
Kd (full-length E. coli RelA): 0.013 µM

B4: Nb96 (VHH)
VHH: QVQLQESGGGLVQAGGSLRLSCAASGSIFDIKVMAWYRQAPGKSRELVAVHASADDSTTYEKSVKGRFTISRDNAKNTVYLQMNSLKPEDTAIYYCNRIPNFTHWGQGTQVTVS
notes: llama nanobody selected against E. coli RelA; Expressed from the pMESy4 plasmid; also called nanobody 96; source: E. coli WK6, periplasmic extraction, purified (Ni-NTA IMAC, SEC)
Kd (full-length E. coli RelA): 0.08 µM

B5: Nb585 (VHH)
VHH: QVQLQESGGGLVQAGGSLRLSCAASGFTFEDYTIGWFRQAPGKEREGVSLISNSDGFTSYADSVKGQFTISSENAKNTVYLQMDNLKPEDTAVYYCAATEVLAHLMWRPSNWGYWGQGTQVTV
notes: llama nanobody selected against C. tepidum Rel; Expressed from the pMESy4 plasmid; also called nanobody 585; source: E. coli WK6, periplasmic extraction, purified (Ni-NTA IMAC, SEC)
Kd [1]: 0.021 µM
binding result [6]: binds
HD (ppGpp hydrolase) activity of RelCt in the presence of Nb585, HPLC [2]: 2 fold
fold drop in affinity against unsubstituted RelCt [7]: 28 fold

B6: Nb120 (VHH)
VHH: QVQLVESGGGLVQPGGSLRLSCAASGTIRSLNAMAWYRQAPGKERELAARISSGGTTTYADSVKGRFTISRDNAKNTLYLQMNSLKPEDTAVYYCKANRFSTYGYRDDIWGQGTQVTVS
notes: control nanobody selected against a different target; also called control Nb120; source: E. coli WK6, periplasmic extraction, purified (Ni-NTA IMAC, SEC)
binding result (full-length E. coli RelA): no binding
